The target of one data set is T1, C1 inhibitor, P05155.
T1 chain: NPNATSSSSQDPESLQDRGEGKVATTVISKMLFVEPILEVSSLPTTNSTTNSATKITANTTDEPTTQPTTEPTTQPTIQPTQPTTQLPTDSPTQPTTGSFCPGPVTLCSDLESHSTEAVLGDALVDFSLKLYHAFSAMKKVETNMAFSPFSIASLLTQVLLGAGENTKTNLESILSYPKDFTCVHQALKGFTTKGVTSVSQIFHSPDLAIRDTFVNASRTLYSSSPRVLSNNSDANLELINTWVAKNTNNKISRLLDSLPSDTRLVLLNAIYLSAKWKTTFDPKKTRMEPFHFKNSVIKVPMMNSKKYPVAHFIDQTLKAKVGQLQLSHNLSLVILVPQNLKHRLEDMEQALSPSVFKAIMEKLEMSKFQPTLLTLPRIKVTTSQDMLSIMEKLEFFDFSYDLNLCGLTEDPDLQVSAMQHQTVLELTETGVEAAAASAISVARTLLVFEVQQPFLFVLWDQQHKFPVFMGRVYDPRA

Data set [1] addresses T2, C-Reactive protein, P02741.
T2 chain: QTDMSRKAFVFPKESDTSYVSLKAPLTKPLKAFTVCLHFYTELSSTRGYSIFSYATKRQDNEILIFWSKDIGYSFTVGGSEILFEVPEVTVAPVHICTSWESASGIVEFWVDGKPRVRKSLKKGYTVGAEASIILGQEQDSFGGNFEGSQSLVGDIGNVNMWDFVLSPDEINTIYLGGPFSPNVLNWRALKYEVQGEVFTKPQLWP

For another data set, the target named is T3, human C5a, P01031.
T3 chain: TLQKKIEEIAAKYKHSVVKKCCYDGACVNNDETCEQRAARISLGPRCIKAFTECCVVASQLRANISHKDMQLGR

In another data set the target is T4, Factor H, P08603.
T4 chain: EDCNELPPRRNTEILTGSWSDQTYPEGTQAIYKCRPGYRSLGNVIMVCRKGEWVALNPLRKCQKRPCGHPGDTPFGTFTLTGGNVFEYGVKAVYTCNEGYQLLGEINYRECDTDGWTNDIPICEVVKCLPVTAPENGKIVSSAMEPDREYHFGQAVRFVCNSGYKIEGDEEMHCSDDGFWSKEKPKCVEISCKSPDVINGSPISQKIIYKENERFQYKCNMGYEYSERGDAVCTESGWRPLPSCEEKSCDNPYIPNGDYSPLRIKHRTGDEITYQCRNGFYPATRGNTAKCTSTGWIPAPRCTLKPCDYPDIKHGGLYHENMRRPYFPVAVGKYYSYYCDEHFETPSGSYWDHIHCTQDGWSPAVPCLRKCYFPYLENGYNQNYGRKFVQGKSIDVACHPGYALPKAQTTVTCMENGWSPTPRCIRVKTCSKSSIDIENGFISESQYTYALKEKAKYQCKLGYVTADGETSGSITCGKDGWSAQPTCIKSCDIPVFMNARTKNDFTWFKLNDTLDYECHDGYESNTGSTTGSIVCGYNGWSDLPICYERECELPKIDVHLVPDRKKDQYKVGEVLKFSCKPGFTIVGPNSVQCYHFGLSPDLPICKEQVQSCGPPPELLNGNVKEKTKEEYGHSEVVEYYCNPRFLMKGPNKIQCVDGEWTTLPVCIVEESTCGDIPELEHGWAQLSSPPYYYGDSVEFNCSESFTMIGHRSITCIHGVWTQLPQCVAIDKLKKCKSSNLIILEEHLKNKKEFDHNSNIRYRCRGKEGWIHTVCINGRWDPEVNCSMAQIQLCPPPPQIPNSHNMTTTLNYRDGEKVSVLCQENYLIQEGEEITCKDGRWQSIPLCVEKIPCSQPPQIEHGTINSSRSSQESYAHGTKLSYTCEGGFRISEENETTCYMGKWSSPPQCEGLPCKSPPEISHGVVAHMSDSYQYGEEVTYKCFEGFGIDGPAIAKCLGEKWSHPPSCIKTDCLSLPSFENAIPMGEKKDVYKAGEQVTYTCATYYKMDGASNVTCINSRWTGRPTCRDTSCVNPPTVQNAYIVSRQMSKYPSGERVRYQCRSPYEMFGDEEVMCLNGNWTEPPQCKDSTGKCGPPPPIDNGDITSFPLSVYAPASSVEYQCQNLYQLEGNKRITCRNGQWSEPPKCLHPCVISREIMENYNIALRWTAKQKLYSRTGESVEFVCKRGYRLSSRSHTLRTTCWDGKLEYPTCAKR

Data set [2] addresses T5, C4-Binding protein, P04003.
T5 chain 1: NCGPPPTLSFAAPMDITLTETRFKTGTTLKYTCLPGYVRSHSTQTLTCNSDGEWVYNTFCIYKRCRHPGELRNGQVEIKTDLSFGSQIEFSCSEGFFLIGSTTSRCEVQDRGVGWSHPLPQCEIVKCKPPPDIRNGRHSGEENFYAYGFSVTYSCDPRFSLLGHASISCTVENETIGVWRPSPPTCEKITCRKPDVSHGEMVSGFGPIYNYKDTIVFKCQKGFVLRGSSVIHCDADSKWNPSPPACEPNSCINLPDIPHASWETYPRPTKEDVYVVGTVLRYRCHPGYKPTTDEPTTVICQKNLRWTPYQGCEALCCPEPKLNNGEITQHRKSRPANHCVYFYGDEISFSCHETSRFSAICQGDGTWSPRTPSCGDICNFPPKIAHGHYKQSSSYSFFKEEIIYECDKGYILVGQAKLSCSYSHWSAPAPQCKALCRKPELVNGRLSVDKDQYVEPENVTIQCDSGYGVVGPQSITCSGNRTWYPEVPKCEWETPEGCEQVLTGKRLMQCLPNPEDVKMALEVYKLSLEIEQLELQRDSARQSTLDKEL
T5 chain 2: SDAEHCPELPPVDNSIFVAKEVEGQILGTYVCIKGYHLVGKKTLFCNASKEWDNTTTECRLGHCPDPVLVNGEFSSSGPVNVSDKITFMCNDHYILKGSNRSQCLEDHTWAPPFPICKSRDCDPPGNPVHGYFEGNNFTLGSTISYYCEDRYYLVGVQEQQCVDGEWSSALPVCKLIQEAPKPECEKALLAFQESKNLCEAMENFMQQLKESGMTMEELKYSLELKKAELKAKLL

Chain of C3a, P01024 (P01024 672-748): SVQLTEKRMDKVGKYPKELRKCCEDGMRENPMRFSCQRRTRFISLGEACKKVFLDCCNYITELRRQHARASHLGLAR
Chain of Properidin, P27918 (P27918 28-469): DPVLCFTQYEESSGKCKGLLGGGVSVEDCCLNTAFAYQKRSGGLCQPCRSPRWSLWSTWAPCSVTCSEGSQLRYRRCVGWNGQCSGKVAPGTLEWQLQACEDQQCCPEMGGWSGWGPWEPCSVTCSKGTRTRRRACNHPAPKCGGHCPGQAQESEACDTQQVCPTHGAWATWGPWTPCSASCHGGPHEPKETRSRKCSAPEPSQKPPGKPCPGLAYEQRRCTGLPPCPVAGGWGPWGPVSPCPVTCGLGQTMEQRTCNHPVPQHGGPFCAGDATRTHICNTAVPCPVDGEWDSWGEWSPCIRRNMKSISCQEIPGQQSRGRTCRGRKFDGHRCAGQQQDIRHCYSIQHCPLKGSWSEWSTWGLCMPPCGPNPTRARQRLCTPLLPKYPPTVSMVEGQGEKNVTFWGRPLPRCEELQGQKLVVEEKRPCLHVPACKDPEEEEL

B1: PrtV(Pro-B) (protein)
chain: DTVNGSESVKTEATQASGSSVQDNATAKTTVTTNSNSSNNVSNVQTDTVKEAATSNVDSVASQNQATTAQQAKTTADTADQTVPPTTYKDHVKGNVQTAWDNGYKGQGMVVAVIDSGADTNHKDFSKAPESPAISKEDADKKISELGYGKYASEKFPFVYNYASRDNNWVKDDGPDASEHGQHVAGIIGADGQPNGNERYAVGVAPETQLMMMRVFNDQFADENTDDIAQAIYDAVKLGANVIQMSLGQGVAAANLNDVEQKAVEYATQHGVFVSISASNNGNSASVTGEEVPYKPGGADGNFEPFSSSTVANPGASRNAMTVAAENSVVGAGDDMADFSSWGPLQDFTLKPDVSAPGVSVTSTGNDNRYNTMSGTSMAGPFNAGVAALVMQRLKATTNLNGADLVQATKALIMNTAKPMTQQGYDTPVSPRRQGAGEIDAGAATESPVYVVAADGTSSVSLRKVGDSTQFALTFKNLSDKDQTYTFDDFGGGLTEVRDADTGTFHDVYLAGAHVYGNKTVTVKAGQSATYNFTLSLTGLKENQLVEGWLRFVGNDGQNQLVVPYLAYYGDMTSEDVFDKAANQEGTVYGGNYFVNEDNYPRGVADEDSLKALVNLEGNYNWQQVAKLYQDGKVAFSPNADGKSDLLKPYAFVKQNLKDLKVEVLDKSGKVVRVVADEQGLDKSYYESGVNKDVTLSVSMRNNPNTLAWDGKVYDDKAGEMVNAADGEYTYRYVATLYNDGVNKVQTADYPVVIDTTAPVLSNVKYDAATHTLSFDYKDTGSGFTDYSYAVVKVNDKTFGYKLNDGKNSKFLDAAKTSGTFKAVLGSDTLAALTAAKNALSVAVSDVADNTSTVTLLVNGNNDATTKVSVWNATNGLELDQSSPDYQAATSTYNLRGNATSDFYYNGALVQVDNSGNFVVPVSTSDTAVVFTSDAAGKNVVYKLNTATPKAVFAWQVNNTVKENFGIVLDTVVSNNKDDVVVQAAVTKGDNVEAYARDYFTGAVYKADVKDGLATFHVKVTNNSGRTVLLGWTEVVGPTFNDVQRTSANGVYLGVDTDTENPTPAPAFTSADQLGTNVVQEKADSATIGNPGDLPGHSLKDLTTRADANPDIHFDYLKDNDYNWVGAQAVKDGVYNPSTQVFTLTGKVDPNVKSLVVLGDSYNEDDPVNKVNLNSDGTFSFQFHTAPTSQRPVAYIYTKDDGSTTRGTMELILDTVLPTLSLNNVANLQLDSNGDYQVYTNNKDFSVSGEATDNLDGYRFFFNGDNDYREFHNSGVNFVAEAHQDGSTVTNPYPAYKFSKTFNLADATGETTHVYTLSVVDLTGNTVTRKFYVHY
On to B1, for which the “proteolytic activity (SDS-PAGE)” value with C1 inhibitor, P05155 is reported as “None of the complement proteins tested show evidence of breakdown”; with Properidin, P27918 it was “None of the complement proteins tested show evidence of breakdown”; in data set [1], “None of the complement proteins tested show evidence of breakdown”; in the data set with C4, “None of the complement proteins tested show evidence of breakdown”; with Factor H, P08603, “None of the complement proteins tested show evidence of breakdown”; in [2], “None of the complement proteins tested show evidence of breakdown”. For the same protein, the “protein cleavage assay (SDS-PAGE)” value is “has activities against” with human C5a, P01031; “has activities against” with IP-10; “has activities against” with C3a, P01024; “has activities against” with IL-1β; “has activities against” in the data set with IL-3; “has activities against” with IL-17. Besides, the “protein cleavage assay (SDS-PAGE)” value in the data set with TNF-α was “has activities against”. In the data set with C3a, P01024, the “proteolytic activity (control of enzyme stock)” value is recorded as “shown to be active against C3a”.

These data come from US20210386836.
